Results on one molecule are retold here after article PMC4357697, “Sequence-specific cleavage of dsRNA by Mini-III RNase”.

One data set deals with T1, BsMiniIII Δ5 (Bacillus subtilis ATCC 23857, UniProt O31418 1-143, del91-95).
T1 sequence: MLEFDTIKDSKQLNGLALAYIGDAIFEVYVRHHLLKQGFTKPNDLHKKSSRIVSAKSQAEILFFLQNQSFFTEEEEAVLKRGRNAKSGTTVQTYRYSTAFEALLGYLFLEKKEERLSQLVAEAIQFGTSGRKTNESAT
The experiment in a line: filter binding; 1 mM Ca2+; affinity not affected vs wild type; Filter binding: 10 mM Tris-HCl pH 7.5, 5 mM NaCl, 1 mM CaCl2, room temperature, 1 h; 0.01 µM labeled 30 bp dsRNA, 0.1-4 µM enzyme. As to conditions: protein: recombinant; tags: C-terminal His6; chain copies: 2; label: 32P end label (33P in Methods for the substrate); blunt.

Another data set has as its target T2, BsMiniIII Δ10 (Bacillus subtilis ATCC 23857, UniProt O31418 1-143, del86-95).
T2 sequence: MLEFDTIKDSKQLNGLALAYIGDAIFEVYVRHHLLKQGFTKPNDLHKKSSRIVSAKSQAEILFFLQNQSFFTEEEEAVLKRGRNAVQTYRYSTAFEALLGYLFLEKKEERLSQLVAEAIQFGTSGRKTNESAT
The description is as above. To be noted: protein: recombinant; tags: C-terminal His6; chain copies: 2; label: 32P end label (33P in Methods for the substrate); blunt.

B1: 30 bp dsRNA (30f/30r) (dsRNA)
RNA 1: CGAUACCGUCGACCUCGAGGGGGGGCCCGG
RNA 2: CCGGGCCCCCCCUCGAGGUCGACGGUAUCG
With B1, the binding result with BsMiniIII Δ5 and in the data set with BsMiniIII Δ10 was “binds” in each case.
